# Reference: patent US20210388087A1 (Chugai, published 2021)
# Substitutions are numbered along the chain they refer to. Numbers in names are those of the source.
# B1: dBBDu183H V63Q/dBBDu072L (antibody, name in Kabat numbering, V domains shown)
# VH: QVQLVESGGGLVQPGRSLRLSCAASGFTFSNAWMHWVRQAPGKGLEWVAQIKDKGNAYAAYYAPSQKGRFTISRDDSKNSIYLQMNSLKTEDTAVYYCHYVHYASASTVLPAFGVDAWGQGTTVTVSS
# VL: DIVMTQSPLSLPVTPGEPASISCQASQELVHMNRNTYLHWYQQKPGQAPRLLIYKVSNRFPGVPDRFSGSGSGTDFTLKISRVEAEDVGVYYCAQGTSVPFTFGQGTKLEIK
# B2: dBBDu183H V63R/dBBDu072L (antibody, name in Kabat numbering, V domains shown)
# VH: B1 VH with Q66R
# VL: B1 VL
# B3: dBBDu183H V63S/dBBDu072L (antibody, name in Kabat numbering, V domains shown)
# VH: B1 VH with Q66S
# VL: B1 VL
# B4: dBBDu183H V63T/dBBDu072L (antibody, name in Kabat numbering, V domains shown)
# VH: B1 VH with Q66T
# VL: B1 VL
# B5: dBBDu183H V63W/dBBDu072L (antibody, name in Kabat numbering, V domains shown)
# VH: B1 VH with Q66W
# VL: B1 VL
# B6: dBBDu183H V63Y/dBBDu072L (antibody, name in Kabat numbering, V domains shown)
# VH: B1 VH with Q66Y
# VL: B1 VL
# B7: dBBDu183H V95D/dBBDu072L (antibody, name in Kabat numbering, V domains shown)
# VH: B1 VH with Q66V, V101D
# VL: B1 VL
# B8: dBBDu183H V95E/dBBDu072L (antibody, name in Kabat numbering, V domains shown)
# VH: B1 VH with Q66V, V101E
# VL: B1 VL
# B9: dBBDu183H V95F/dBBDu072L (antibody, name in Kabat numbering, V domains shown)
# VH: B1 VH with Q66V, V101F
# VL: B1 VL
# B10: dBBDu183H V95G/dBBDu072L (antibody, name in Kabat numbering, V domains shown)
# VH: B1 VH with Q66V, V101G
# VL: B1 VL
# B11: dBBDu183H V95H/dBBDu072L (antibody, name in Kabat numbering, V domains shown)
# VH: B1 VH with Q66V, V101H
# VL: B1 VL
# B12: dBBDu183H V95K/dBBDu072L (antibody, name in Kabat numbering, V domains shown)
# VH: B1 VH with Q66V, V101K
# VL: B1 VL
# B13: dBBDu183H V95N/dBBDu072L (antibody, name in Kabat numbering, V domains shown)
# VH: B1 VH with Q66V, V101N
# VL: B1 VL
# B14: dBBDu183H V95Q/dBBDu072L (antibody, name in Kabat numbering, V domains shown)
# VH: B1 VH with Q66V, V101Q
# VL: B1 VL
# B15: dBBDu183H V95R/dBBDu072L (antibody, name in Kabat numbering, V domains shown)
# VH: B1 VH with Q66V, V101R
# VL: B1 VL
# B16: dBBDu183H V95S/dBBDu072L (antibody, name in Kabat numbering, V domains shown)
# VH: B1 VH with Q66V, V101S
# VL: B1 VL
# B17: dBBDu183H V95T/dBBDu072L (antibody, name in Kabat numbering, V domains shown)
# VH: B1 VH with Q66V, V101T
# VL: B1 VL
# B18: dBBDu183H V95W/dBBDu072L (antibody, name in Kabat numbering, V domains shown)
# VH: B1 VH with Q66V, V101W
# VL: B1 VL
# B19: dBBDu183H V95Y/dBBDu072L (antibody, name in Kabat numbering, V domains shown)
# VH: B1 VH with Q66V, V101Y
# VL: B1 VL
# B20: dBBDu183H V100cD/dBBDu072L (antibody, name in Kabat numbering, V domains shown)
# VH: B1 VH with Q66V, V109D
# VL: B1 VL
# B21: dBBDu183H V100cE/dBBDu072L (antibody, name in Kabat numbering, V domains shown)
# VH: B1 VH with Q66V, V109E
# VL: B1 VL
# B22: dBBDu183H V100cF/dBBDu072L (antibody, name in Kabat numbering, V domains shown)
# VH: B1 VH with Q66V, V109F
# VL: B1 VL
# B23: dBBDu183H V100cG/dBBDu072L (antibody, name in Kabat numbering, V domains shown)
# VH: B1 VH with Q66V, V109G
# VL: B1 VL
# B24: dBBDu183H V100cH/dBBDu072L (antibody, name in Kabat numbering, V domains shown)
# VH: B1 VH with Q66V, V109H
# VL: B1 VL
# B25: dBBDu183H V100cK/dBBDu072L (antibody, name in Kabat numbering, V domains shown)
# VH: B1 VH with Q66V, V109K
# VL: B1 VL
# B26: dBBDu183H V100cN/dBBDu072L (antibody, name in Kabat numbering, V domains shown)
# VH: B1 VH with Q66V, V109N
# VL: B1 VL
# B27: dBBDu183H V100cQ/dBBDu072L (antibody, name in Kabat numbering, V domains shown)
# VH: B1 VH with Q66V, V109Q
# VL: B1 VL
# B28: dBBDu183H V100cR/dBBDu072L (antibody, name in Kabat numbering, V domains shown)
# VH: B1 VH with Q66V, V109R
# VL: B1 VL
# B29: dBBDu183H V100cS/dBBDu072L (antibody, name in Kabat numbering, V domains shown)
# VH: B1 VH with Q66V, V109S
# VL: B1 VL
# B30: dBBDu183H V100cT/dBBDu072L (antibody, name in Kabat numbering, V domains shown)
# VH: B1 VH with Q66V, V109T
# VL: B1 VL
# B31: dBBDu183H V100cW/dBBDu072L (antibody, name in Kabat numbering, V domains shown)
# VH: B1 VH with Q66V, V109W
# VL: B1 VL
# B32: dBBDu183H V100cY/dBBDu072L (antibody, name in Kabat numbering, V domains shown)
# VH: B1 VH with Q66V, V109Y
# VL: B1 VL
# B33: dBBDu183H V100iD/dBBDu072L (antibody, name in Kabat numbering, V domains shown)
# VH: B1 VH with Q66V, V115D
# VL: B1 VL
# B34: dBBDu183H V100iE/dBBDu072L (antibody, name in Kabat numbering, V domains shown)
# VH: B1 VH with Q66V, V115E
# VL: B1 VL
# B35: dBBDu183H V100iF/dBBDu072L (antibody, name in Kabat numbering, V domains shown)
# VH: B1 VH with Q66V, V115F
# VL: B1 VL
# B36: dBBDu183H V100iG/dBBDu072L (antibody, name in Kabat numbering, V domains shown)
# VH: B1 VH with Q66V, V115G
# VL: B1 VL
# B37: dBBDu183H V100iH/dBBDu072L (antibody, name in Kabat numbering, V domains shown)
# VH: B1 VH with Q66V, V115H
# VL: B1 VL
# B38: dBBDu183H V100iK/dBBDu072L (antibody, name in Kabat numbering, V domains shown)
# VH: B1 VH with Q66V, V115K
# VL: B1 VL
# B39: dBBDu183H V100iN/dBBDu072L (antibody, name in Kabat numbering, V domains shown)
# VH: B1 VH with Q66V, V115N
# VL: B1 VL
# B40: dBBDu183H V100iQ/dBBDu072L (antibody, name in Kabat numbering, V domains shown)
# VH: B1 VH with Q66V, V115Q
# VL: B1 VL
# B41: dBBDu183H V100iR/dBBDu072L (antibody, name in Kabat numbering, V domains shown)
# VH: B1 VH with Q66V, V115R
# VL: B1 VL
# B42: dBBDu183H V100iS/dBBDu072L (antibody, name in Kabat numbering, V domains shown)
# VH: B1 VH with Q66V, V115S
# VL: B1 VL
# B43: dBBDu183H V100iT/dBBDu072L (antibody, name in Kabat numbering, V domains shown)
# VH: B1 VH with Q66V, V115T
# VL: B1 VL
# B44: dBBDu183H V100iW/dBBDu072L (antibody, name in Kabat numbering, V domains shown)
# VH: B1 VH with Q66V, V115W
# VL: B1 VL
# B45: dBBDu183H V100iY/dBBDu072L (antibody, name in Kabat numbering, V domains shown)
# VH: B1 VH with Q66V, V115Y
# VL: B1 VL
# Biological target: T1, Human CD3eg linker (human)
# T1 construct: single-chain construct; also called recombinant human CD3
# T1 chain: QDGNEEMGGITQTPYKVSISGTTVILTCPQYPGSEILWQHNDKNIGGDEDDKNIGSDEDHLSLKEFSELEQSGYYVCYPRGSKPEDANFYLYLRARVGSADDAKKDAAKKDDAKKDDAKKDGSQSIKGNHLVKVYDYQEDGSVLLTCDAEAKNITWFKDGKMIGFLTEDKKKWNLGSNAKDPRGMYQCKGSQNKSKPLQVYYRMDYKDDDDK
# Test: SPR, vs unmutated H183/L072
row,Binder,fold change of affinity
1,B1,1.2 fold
2,B2,1.2 fold
3,B3,1.1 fold
4,B4,1.2 fold
5,B5,0.8 fold
6,B6,1.1 fold
7,B7,0 fold
8,B8,0 fold
9,B9,0 fold
10,B10,0 fold
11,B11,0 fold
12,B12,0 fold
13,B13,0 fold
14,B14,0 fold
15,B15,0 fold
16,B16,0 fold
17,B17,0 fold
18,B18,0 fold
19,B19,0 fold
20,B20,0.8 fold
21,B21,0.8 fold
22,B22,1.8 fold
23,B23,1.5 fold

row,Binder,fold change of affinity
1,B24,1.2 fold
2,B25,1.2 fold
3,B26,1 fold
4,B27,1.4 fold
5,B28,1.5 fold
6,B29,1.1 fold
7,B30,1 fold
8,B31,1.5 fold
9,B32,1.3 fold
10,B33,2.4 fold
11,B34,1.4 fold
12,B35,3.2 fold
13,B36,1.8 fold
14,B37,2.2 fold
15,B38,2.4 fold
16,B39,5 fold
17,B40,3.6 fold
18,B41,4 fold
19,B42,1.9 fold
20,B43,1 fold
21,B44,4.9 fold
22,B45,3 fold
